Laboratory results reported in patent publication US20110159022A1, “Immunogenic Peptides Derived from the Midkine Protein, as an Anticancer Vaccine” (priority 2008, published 2011).
Where no end group is shown, it is not given here.

Target: T1, HLA-DR13 (DRB1*1301) (human)
T1 chain 1: not shown
T1 chain 2: not shown
Test: competition ELISA, nonbiotinylated reference peptide against its biotinylated tracer

**Q.** TERVRLVTRHIYNREE (not fully specified) [B1 21-36 (nonbiotinylated reference peptide)] was tested. Which IC50 did it give?
**A.** 39 nM
